Assay: soluble on expression in E. coli; label from the status in PepcDB or PDB records

MTALAVAPASAACAIAAEAIHCAAMDTASAADEALMLAYGAEGDMDAFDALYARHRAGLYRYILRSARNAAQADDIFQETWSRVIDARARYRPQARFTTWLLQIAHNLLVDAHRRQPAPVAPEQAEAALASVPAAEHEQPEARLSEFQQRRRLQLAIERLPDEQRLAMLLRLEHDLDVEEIAQVTGVSRETVKSRLRYATRRIREELSSESAPRSP
soluble on expression in E. coli: not soluble

MDKQLEAARKFLKDNVRQMVDFSQTAQNRRVPPPPIEKPMPEEAKTIPLPVIGKAKSAGNIDLWSAIGQRESCRFYADEPMSLDELSLLLWATQGVRLKLDAGHALRTVPSAGCRHAFETYLCVLNVESLDKGIYRYLPLEHALLCSHAPEKLESRIVRATLGQRFTGDAAVVFVWTAIPYRMEWRYGLAAHKVIALDAGHVCQNLYLACEAIGAGTCAIAAYDQDEMDRLLDVDGEEEFTIYLAPVGKKG
soluble on expression in E. coli: not soluble

MGSDKIHHHHHHMDNYLAEQILKNLPFTPTQSQDSAIRSLAKYLFDREPYSVFLLRGYAGTGKTQLIASVVQTILEQGADCELLAPTGRAAKVLTTYTRHQAYTIHRQIYQATAAGIEEGGAYRIRRSSGRSTVFIVDESSMIGNESVEPTPFGSGSLLNDLLAYVNETDGCRLILAGDMAQLPPVGSVVSPALDAGVMETSYGLRIHECTLTEVVRQQKESAILSLATSLRRLLSNGISEKIKLNIRDSGDVSAISGTELIEALDASFRTVGMDETIIVSYSNKRALAYNLGIRSQVLYYEEELIRGDRLVVTRNNYRYCDRRDKTDFVANGEIVEILRLGKRYELYGFRFADATISLVEQGREIEARLLLDGLTAETAGLTHAQRQKLYDAVAEDYNSMASIPARRKAIKEDAFFSALEVKYAYAITCHKAQGGQWKHVYVDMGMLSYLPHDEQLCRWLYTAVTRASERLFLVNTPKDMLP
soluble on expression in E. coli: not soluble

MSQQKIGVLLVNLGTPEHPTAPAIRKFLKPFLADSRVIDYPKFLWKPILYSFILPFRPRKVKPLYQHVWTNEGSPLYANAIGQEKALQAHFDQSEHGVLVRATMAYSKPSISDVVDEFLKEKVAKMIVLPLFPQYSSTTTAAIFDAFAQSLKKKKDIPPFDFIHHYYERPSYIQALAQTIHLQENEHLLFSFHGIPQRYVIEGDYYTEHCQQTAQLIAVAAGLSEEQWQVSYQSRFGPEEWTRPYTDETLIQLPKQGKKKLAVICPGFAADCLETLEEIDITNRKHFMAAGGQAYRYIPALNASPAHIQLLAELISERL
soluble on expression in E. coli: not soluble

MGHHHHHHSHMNNRTRLALIICNTEFDHLPPRNGADFDITGMKELLEGLDYSVDVEENLTARDMESALRAFATRPEHKSSDSTFLVLMSHGILEGICGTVHDEKKPDVLLYDTIFQIFNNRNCLSLKDKPKVIIVQACRGANRGELWVRDSPASLEVASSQSSENLEEDAVYKTHVEKDFIAFCSSTPHNVSWRDSTMGSIFITQLITCFQKYSWCCHLEEVFRKVQQSFETPRAKAQMPTIERLSMTRYFYLFPGN
soluble on expression in E. coli: soluble

GIDPFTVRTRVSEGLVLAEPAKLMISTDGSASTADLTRATTTWNQQSNNLGASSKYVTSVLMDAGNTGVITITYVADQVGLPTAGNTLILSPYINDGNTRTALATAVAAGTRGTIDWACTSASNATATAQGFTGMAAGSVPQEFAPAQCR
soluble on expression in E. coli: soluble

MVKDLLEERARELGLLFAWAPLDLPQEAEARHRAWLEAGRHGGMAYLEAPERFHPRKRFPWAKSALLLFAPYAYPDPGTPPGGLRVGRVARYAWTRDYHLVLGEALKALEETARGLGLKAKGYVDHGPLPERTLAALSGAGWIGKSGYFLSQAFGVHAFIGVLLTPLEVEAAPLHPSRCGRCARCLSACPTEALLGDGTLDARACVSYLTIEHKGPIPPSLWPGIGDWLFGCDLCGEACPWERFGKVWKALRPEPELAHPDLLDFFRLSGRAFGRKYAGTAFLRAGRARMARNALIVLFNLGLGEALFLEATRDPNPLVRRTALRALHLMGKPLDPFLQDPGLREEALALLGEAPEAVHLLQDGREAPGPEVKEQGA
soluble on expression in E. coli: not soluble

MGSDKIHHHHHHMNISNSQVNRLRHFVRAGLRSLFRPEPQTAVEWADANYYLPKESAYQEGRWETLPFQRAIMNAMGSDYIREVNVVKSARVGYSKMLLGVYAYFIEHKQRNTLIPAGFVAVFNSDESSWHLVEDHRGKTVYDVASGDALFISELGPLPENVTWLSPEGEFQKWNGTAWVKDAEAEKLFRIREAEETKNSLMQVASEHIAPLQDAVDLEIATEEETSLLEAWKKYRVLLNRVDTSTAPDIEWPTNPVRE
soluble on expression in E. coli: not soluble

AALDDLIDTLGECEDTNKDDPPYTGPVVLDPMDSTYLEALGIKEGTIPPEYRKLLEKNEAITGPLPDSPKPMGIDHAIDALSSDFT
soluble on expression in E. coli: soluble

MSLVTIKDVALKAGVSPSTVSRVIKGNKRISEATISKVKKVMEELNYFPNTAARTLITNQTYKIGLVLKGSEEPIRLNPFYINVLLGISETCNQHGYGTQTTVSNNMNDLMDEVYKMIKQRMVDAFILLYSKENDPIKQMLIDESMPFIVIGKPTSDIDHQFTHIDNDNILASENLTRHVIEQGVDELIFITEKGNFEVSKDRIQGFETVASQFNLDYQIIETSNEREVILNYMQNLHTRLKDPNIKQAIISLDAMLHLAILSVLYELNIEIPKDVMTATFNDSYLTEIASPPQTCIDIKPRMLGQQAGSAILNILKNKAQDVIELVIIDTELKIRKSTQREGHHHHHH
soluble on expression in E. coli: soluble

GPGSMALVHTTYPQCLSLVEADTAEAEVQQALEDGANTLYFSHHFNYTDVPPSIAALREQLEVLHIDNNYPFTTISPRVTALTNLRWLNASYCSLRSVDSSISRLSKLERLTLNNNMLTWLPLDVWQLKALEELHIDNNQLNVLPGCLLFLPRLRVLTLENNPLYTHEEVNGAAAATYIPVQCSVDCSACCIRSRNYKVFVTFHTIVGHSDVPFVHVVCSDECAVHVRSRLEAYDRAHANQP
soluble on expression in E. coli: soluble

MYDYSILPNRIILCVDLRSFYASVSCIKMGLDPMHTKLAVVGDVNRNGSIVLAATPPLKALGVKKMARLYEIPRRKDILVVNPIMSTYIKCSNYITKLALQYVPIEDFHQYSIDEFFMDITDSIHLFAQDPYEFAMKFKREIYDHTRIECTIGIAPNPLMSKVALDIEAKKNKDGIAFWQYEDIPTKLWSIRPLNKFWGISYKTEEKLNRKGIYSIGDLANYPLKYLKQSFGKIGEELHLHSHGIDFSRISEKYVPATTSIGKSQILMRDYTIEEFPIILLEHIEEVCYRLRRQTKLAQTIHFSVGYSKSYTGGIRKTHTLNRPTNLTMDIYHICTYFLHQQYTGEPIRSINISLTNLIQEGEEQISLFDNVTKREQEMKLTKVMDEIRTKFGKNSILRGISYTHSATARHRNTLIGLEHHHHHH
soluble on expression in E. coli: not soluble

MGEAETPSFEMTWSSTTSSGYCSQEDSDSELEQYFTARTSLVRRPRRDQDEAVERETPDLSQAETEQKIKDYNGQINSNLFMSLNKDGSYTGFIKVQLKLVRPVSVPSSKKPPSLQDARRGTGRSTAVKRRTSFYLPKDAIKHLHVLSRTRAREVIEALLRKFMVVDDPRKFALFERTERHGQVYLRKLSDDEQPLKLRLLAGPSEKALSFVLKENDSGEVNWDAFSMPELHNFLRILQREEEEHLRQILQKYSRCRQKIQEALHACPLG
soluble on expression in E. coli: soluble

ADVHDKATRSKNMRAIATRDTAIEKRLASLLTGQGLAFRVQDASLPGRPDFVVDEYRCVIFTHGCFWHHHHCYLFKVPATRTEFWLEKIGKNVERDRRDISRLQELGWRVLIVWECALRGREKLTDEALTERLEEWICGEGASAQIDTQGIHLLA
soluble on expression in E. coli: soluble

MGSDKIHHHHHHMMAEALQRENPSGFEGSVAGLPLTDVIQLKGQNRFSGCIAVEYRERQGMIFFRDGDIIHAEQGKLMGEMALYEIIRWPGGRFNIQPKVTTTSRTIQQSISFLLLEAHRLMDEEQAAVRADEGTRREEAAAPAAVQNRMSAVAERIVRIAGVSYAVLMKKDGTPLEDDSFEAEVLSAKGMSLAGIGSRLGELFGLDEVKSAAVHARGKQILLFEAKNHYVSIAVRGDSSLAHVENEIRSTFAGRK
soluble on expression in E. coli: not soluble

MSLSKIKEIRTKVYQWNGKTVPPQNNFCTNASDLLYEKSDAMGSFRFHEWLICEVETNDGHIGIGNAALAPQLVKNTIDTYLKPLVVGEDPFDYAYIWEKMYRKTLNWGRRGLGMVAISAIDIAIWDVLGKITNKPVFKLLGGRTKEKIPVYASKLYAQPLKQLQEEAEKYKNEGFKMFKSRMGWGPKDGSEGMKKNLQLLEAVREVIGEDTDLMVDCYMGWNLDYTKRMLPKMAKFNLRWLEEPVHADDIHGYAELNNMNIIPISGGEHEFNLFGFKQLLELNAVSYIQYDNNRVGGFTVAQKINALAEAYQIPVVPHAGQMHNYHLTMSNFNCPISEFFPVHEVEVGNELFYYIFEGDPAPVDGMIDLDDNTPGLGLKVTDKYKSDFKIIEEGHHHHHH
soluble on expression in E. coli: soluble

SMQVERESISRLMQNYEKINVNEITRFSDFPLSKKTLKGLQEAQYRLVTEIQKQTIGLALQGKDVLGAAKTGSGKTLAFLVPVLEALYRLQWTSTDGLGVLIISPTRELAYQTFEVLRKVGKNHDFSAGLIIGGKDLKHEAERINNINILVCTPGRLLQHMDETVSFHATDLQMLVLDEADRILDMGFADTMNAVIENLPKKRQTLLFSATQTKSVKDLARLSLKNPEYVWVHEKA
soluble on expression in E. coli: soluble

AKLGAVYTEGGFVEGVNKKLGLLGDSVDIFKGIPFAAPTKALENPQPHPGWQGTLKAKNFKKRCLQATITQDSTYGDEDCLYLNIWVPQGRKQVSRDLPVMIWIYGGAFLMGSGHGANFLNNYLYDGEEIATRGNVIVVTFNYRVGPLGFLSTGDANLPGNYGLRDQHMAIAWVKRNIAAFGGDPDNITLFGESAGGASVSLQTLSPYNKGLIRRAISQSGVALSPWVIQKNPLFWAKKVAEKVGCPVGDAARMAQCLKVTDPRALTLAYKVPLAGLEYPMLHYVGFVPVIDGDFIPDDPINLYANAADIDYIAGTNNMDGHIFASIDMPAINKGNKKVTEEDFYKLVSEFTITKGLRGAKTTFDVYTESWAQDPSQENKKKTVVDFETDVLFLVPTEIALAQHRANAKSAKTYAYLFSHPSRMPVYPKWVGADHADDIQYVFGKPFATPTGYRPQDRTVSKAMIAYWTNFAKTGDPNMGDSAVPTHWEPYTTENSGYLEITKKMGSSSMKRSLRTNFLRYWTLTYLALPTVT
soluble on expression in E. coli: soluble

MYEPLHRDAEQKDTAPHDPISILLLGIDERPGDKGRPDSMIVMTVNPKTKKTTMTSIPRDTRVFIKSKNKFSKMNSAYTYGGIEGTVETVEQFLNIPINYYIKINMDGFKDIVDAIGGVTVDNRIDFTLEGVHLSKGKQHLDGKTALTYARMRKDDPRGDFGRQERQREIINEIIHEGAQLKSLTNYQEILAALEKNIKTNLTLDKMIDIQSSYKEAAKDIKQVEIEGEDKKVDSLWYHLVTDEKRMEISKKLRQQLDLKSLEHHHHHH
soluble on expression in E. coli: soluble

MTESDVDSGSKKYLSNHKGIFIHVTLEELKRYHQLTPEQKRLIRAIVKTLIHNPQLLDESSYLYRLLASKAISQFVCPLCLMPFSSSVSLKQHIRYTEHTKVCPVCKKEFTSTDSALDHVCKKHNICVS
soluble on expression in E. coli: soluble

FINNPNRHFANNYHFAKELALELKKQDVLELATAPSLQKRLRFYGIKNSNKFYLKALKQADKHDMDKKIVKVKLGKYEKVYQILNYD
soluble on expression in E. coli: not soluble

MCPGVMGVGSTQSIVLVPGFPKPSTMNVQWKAEGAASQKDASTHKDWSSQVSSITCKPEKPETLPLGHFINGDFIVIIPAGGRALLSATGNAL
soluble on expression in E. coli: not soluble

From the DeepSol protein solubility set
